From the nanobody polyreactivity screen of Harvey et al. (2022)

Test: yeast display, Sf9 membrane polyspecificity reagent, FACS + sequencing; frameworks hold sequencing errors
In short: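 After 36–48 hours of galactose induction, yeast (Saccharomyces cerevisiae BJ5465) displaying a synthetic nanobody library were stained at 4 °C for 1 hour with 10% biotinylated, detergent-solubilized Sf9 membrane reagent. Streptavidin microbeads enriched the stained cells before FACS sorting into low and high (top ~1%) gates on anti-HA and streptavidin fluorescence. Each clone's polyreactivity label reflects its gate of origin.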

| Sequence | polyreactivity (PSR sort gate) |
| --- | --- |
| QVQLVESGGGLVQAGGSLRLSCAASGFTFPGNTMGWYRQAPGKERELVAVISRSGGRSYYADSVKGRFTISRDNAKNTVYLQMNSLKPEDTAVYYCAADTSVRFDYWGQGTQVTVSS | high polyreactivity |
| QVQLVESGGGLVQAGGSLRLSCAASGFTFPHYAMGWYRQAPGKERELVARIRWGGGSTYYADSVKGRFTISRDNAKNTVYLQMNSLKPEDTAVYYCARTTSYLTSTRRYYYWGQGTQVTVSS | high polyreactivity |
| QVQLVESGGGLVQAGGSLRLSCAASGFTFPIYAMGLSRQAPGKERELVAAITTPGGRTYYADSVKGRFTISRDNAKNPVYLQLNSLKPEDTAVYYCNAQGYAYRLWFGYWGQGTQVTVSS | high polyreactivity |
| QVQLVESGGGLVQAGGSLRLSCAASGFTFPIYAMGWSRQAPGKEWELVAAISKGGARTYYADSVKGRFTISRDNAKNTVYLQMNSLNPEDTAVYYCAALGPGGWYDYWGQGTQVTVSS | high polyreactivity |
| QVQLVESGGGLVQAGGSLRLSCAASGFTFPLYAMGWYRQAPGKERELVASISSRGGSTYYADSVKGRFTISRDNAKNTVYLQMNSLKPEDTAVYYCARSTSRYYYWGQGTQVTVSS | high polyreactivity |
| QVQLVESGGGLVQAGGSLRLSCAASGFTFPLYAMGWYRQAPGKETELVATISSSGSTYYADSVKGRFTISRDNAKNTVYLQMNSLKPEDTAVYYCIAAIQSYEGSGRYFRFDYWGQGTQVTVSS | low polyreactivity |
| QVQLVESGGGLVQAGGSLRLSCAASGFTFPRNTMGWYRQAPGKERELVAVISRSGGRSYYADSVKGRFTISRDNAKNTVYLQMNSLKPEDTAVYYCAADTSVRFDYWGQGTQVTVSS | high polyreactivity |
| QVQLVESGGGLVQAGGSLRLSCAASGFTFPRYAMGWYRQAPGKERELVAVITRRGGSTYYADSVKGRFTISRDNAKNTVYLQMNSLKPEDTAVYYCAARQYSYNGGYGYWGQGTQVTVSS | high polyreactivity |
| QVQLVESGGGLVQAGGSLRLSCAASGFTFPRYAMVWYRQAPGKERELVAAINRGGSTYYADSVKGRFTISRDNAKNTVYLQMNSLKPEDTAVYYCARARPVDTVGYVTVSGDYEFDYWGQGTQVTVSS | low polyreactivity |
| QVQLVESGGGLVQAGGSLRLSCAASGFTFPSNAMGWYRQAPGKERELVAAISSTDSTNYADSVKGRFTISRDNAKNTVYLQMNSLKPEDTAVFYCNADRDDDYDYWGQGTQVTVSS | low polyreactivity |
| QVQLVESGGGLVQAGGSLRLSCAASGFTFPSYAMGWYRQAPGKERELVAVISRRGGSTYYADSVKGRFTISRDNAKNTVYLQMNSLKPEDTAVYYCNAPYYVFITFDYWGQGTQVTVSS | high polyreactivity |
| QVQLVESGGGLVQAGGSLRLSCAASGFTFPSYPMGWYRQAPGKETELVAVISWGGTSTYYADSVKGRFTISRDNAKNTVYLQMNSLKPEDTAVYYCNRPSRYASTSRGYGYWGQGTQVTVSS | high polyreactivity |
| QVQLVESGGGLVQAGGSLRLSCAASGFTFPVNAMGWYRQAPGKERELVAAITKRGGGTYYADSVKGRFTISRDNAKNTVYLQMNSLKPEDTAVYYCAARSFWPYYGGDYDYWGQGTQVTVSS | high polyreactivity |
| QVQLVESGGGLVQAGGSLRLSCAASGFTFPVYTMGWYRQAPGKERELVAAISTSGAGTYYADSVKGRFTISRDNAKNTVYLQMNSLKPEDTAVYYCAAYKRGRPEMYYWGQGTQVTVSS | high polyreactivity |
| QVQLVESGGGLVQAGGSLRLSCAASGFTFPYYAKGWYRQAPGKERELVAASTYSGDSTDYADSVKGRFTISRDNAKNTVYLQMNSLKPEDTAVYYCNVTPDCAVTDDYWGQGTQVTVSS | low polyreactivity |
| QVQLVESGGGLVQAGGSLRLSCAASGFTFPYYAMGWYREAPGKERELVAAISFSGGRTYYADSVKGRFTISRDNAKNTVYLQMNSLKPEDTAVYYCAAAKTYYRYNYWGQGTQVSVSS | high polyreactivity |
| QVQLVESGGGLVQAGGSLRLSCAASGFTFPYYAMGWYRQAPGKERELVAAISRNGGSTYYADSVKGRFTISRDNAKNTVYLQMNSLKPEDTAVYYCAARYRYWGGSGFKGFDYWGQGTQVTVSS | high polyreactivity |
| QVQLVESGGGLVQAGGSLRLSCAASGFTFPYYAMGWYRQAPGKERELVAAITYSGDSTYYADSVKGRFTISRDNAKNTVYLQMNSLKPEDTAVYYCNVTPDWAVTDDYWGQGTQVTVSS | low polyreactivity |
| QVQLVESGGGLVQAGGSLRLSCAASGFTFQGNVMGWYRQAPGKERELVAVITSGGSTYYADSVKGRFTISRDNAKNTVYLQMNSLKPEDTAVYYCAKLYNSYTWKYGYWGQGTQVTVSS | high polyreactivity |
| QVQLVESGGGLVQAGGSLRLSCAASGFTFQGYVMGWYRQAPGKERELVARITNDGSTTYADSVKGRFTISRDNAKNTVYLQMNTLKPEDTAVYYCARPYRFWRYYGMYYWGQGTQVTVSS | high polyreactivity |
| QVQLVESGGGLVQAGGSLRLSCAASGFTFQPYAMGWYRQAPGKERELVAAINWSSGRTYYADSVKGRFTISRDNAKNTVYLEMNCLKPEDTAVYYCNTRSTLGYYWGQGTQVTVSS | high polyreactivity |
| QVQLVESGGGLVQAGGSLRLSCAASGFTFQTYAMGWYRQAPGKERELVATINSSGGGTYYADSVKGRFTISRDNAKNTVYLQMNSLKPEDTAVDYCAADAVWFVGQAFDISDSTTYGYWGQGTQVTVSS | low polyreactivity |

| Sequence | polyreactivity (PSR sort gate) |
| --- | --- |
| QVQLVESGGGLVQAGGSLRLSCAASGFTFQVYAMGWYRQAPGKERELVADITESGDSTYYADSVKGRFTISRDNAKNTVYLQMNSLKPEDTAVYYCAADGGWFWSLFYTFAFDYWGQGTQVTVSS | low polyreactivity |
| QVQLVESGGGLVQAGGSLRLSCAASGFTFQYNAMGWYRQAPGKERELVAAITWTGTSTYAYSVKGRFTISRDNAKNTVYLQLNSVKPDDTGVYYCAARYYAPRWFRYDYWGQGTQVTVSS | low polyreactivity |
| QVQLVESGGGLVQAGGSLRLSCAASGFTFQYYAMGWYRQAPGKERELVAAISRGGSTNYADSVKGRFTISRDNAKNTVYLQMNSLKPEDTAVYYCARLGWTYLWGYDSWGQGTQVTVSS | high polyreactivity |
| QVQLVESGGGLVQAGGSLRLSCAASGFTFRANAMGWYRQAPGKERELVAAISQSGGRTNYADSVKGRFTISRDNAKNTVYLQMNSLKPEDTAVYYCAAPYSAKELYYRMDYWGQGTQVTVSS | high polyreactivity |
| QVQLVESGGGLVQAGGSLRLSCAASGFTFRANGMGWYRQAPGKERELVATITSGGTTNYADSVKGRFTISRDNAKNSVYLQMNSLIPEDTAVYYCAKRFGPAYFRLYDYWGQGTQVTVSS | low polyreactivity |
| QVQLVESGGGLVQAGGSLRLSCAASGFTFRANGMGWYRQAPGKETELVATITSGGTTNYADSVKGRFTISRDNAKNTVYLQMNSLKPEDTAVYYCAKRFGPAYFRLYDYWGQGTQVTVSS | low polyreactivity |
| QVQLVESGGGLVQAGGSLRLSCAASGFTFRAYAMGWYRQAPGKEREFVAAISYSGGSTYYADSVKGRFTISRDNAKNTVDLQMNSLKPEDTAVYYCATVLYSVPRYNYWGQGTQVTVSS | high polyreactivity |
| QVQLVESGGGLVQAGGSLRLSCAASGFTFRDNAMGWYRQAPGKEWELVAAITWDGGSTYYADSVKGRFTISRDNAKNTVYLQMNSLKPEDTAVYYCAASRYYPRYFKRYYYWGQGTQVTVSS | high polyreactivity |
| QVQLVESGGGLVQAGGSLRLSCAASGFTFRFYAMGWYRQAPGKERELVAAISRRGGTTYYADSVKGRFTISRDNAKNTVYLQMNSLKPEDTAVYYCNKDWTYEHGYWGQGTQVTVSS | high polyreactivity |
| QVQLVESGGGLVQAGGSLRLSCAASGFTFRGNAMGWYRQAPGKERELVATISRGGNTNYADSVKGRFTISRDNAKNTVYLLMNSLKPEDTAVYYFAAVSYIRSKVSYNYWGNGTQVTVSS | low polyreactivity |
| QVQLVESGGGLVQAGGSLRLSCAASGFTFRGNAMGWYRQAPVKERELVAAITSSDDSTYYADSVKGRFTISRDLSKNTVYLQMNSLKPEDTAVYYCAAVANGYWTYEYWGQGTQVTVSS | low polyreactivity |
| QVQLVESGGGLVQAGGSLRLSCAASGFTFRGYAMGWYRQAPGKERELVAAISKRGGSTYYADSVKGRFTISRDNAKNTVYLQMNSLKPEDTAVYYCNADYYIVGPPYAPTREDYWGQGTQVTVSS | high polyreactivity |
| QVQLVESGGGLVQAGGSLRLSCAASGFTFRGYAMGWYRQAPGKERELVAAISWRGGSTYYADSVKGRFTISRDNAKNTVYLQMNSLKPEDTAVYYCAARYGRSYFGYYYWGQGTQVTVSS | high polyreactivity |
| QVQLVESGGGLVQAGGSLRLSCAASGFTFRGYAMGWYRQAPGKERELVAVINTDGSTNYADSVKGRFTISRDNAKNTVYLQMNSLKPEDTAVYYCNAVRSSIGSDNDYWGQGTQVTVSS | low polyreactivity |
| QVQLVESGGGLVQAGGSLRLSCAASGFTFRIYAMGWYRQAPGKERELVAAISWAGGSTFYADSVKGRFTISRDNAKNTVYLQMNSLKPEDTAVYYCAADYGYFEYDYWGQGTQVTVSS | low polyreactivity |
| QVQLVESGGGLVQAGGSLRLSCAASGFTFRKNAMGWYRQAPGKERELVAAISSGTSTYYADSVKGRFTISRDNAKNTVYLQMNSLKPEDTAVYYCAAARYRTDDYWGLGTQVTVSS | high polyreactivity |
| QVQLVESGGGLVQAGGSLRLSCAASGFTFRKYAMGWYRQAPGKERELVAAISSSGTSTYYADSVKGRFTISRDNAKNTVYLQMNSLKPEDTAVYYCAADRYYWGRYTLNYWGQGTQVTVSS | low polyreactivity |
| QVQLVESGGGLVQAGGSLRLSCAASGFTFRNYAMGWYRQAPGKERELVAAISKRGGNTYYADSVKGRFTISRDNAKNTVYLQLYSLKREDTAVYYCAADYQFSQDVWHFGYWGLGTQVTVSS | high polyreactivity |
| QVQLVESGGGLVQAGGSLRLSCAASGFTFRNYAMGWYRQAPGKERELVAAISKRGGNTYYADSVKGRFTISRDNAKNTVYLQMNSLKPEDTAVYYCAAQRYTGQGSGYGYWGQGTQVTVSS | high polyreactivity |
| QVQLVESGGGLVQAGGSLRLSCAASGFTFRNYAMGWYRQAPGKERELVAAISKRGGNTYYADSVKGRFTISRDNAKNTVYLQMNSLKPEDTAVYYCARKYFRTSNLYGYWGQGTQVTVSS | high polyreactivity |
| QVQLVESGGGLVQAGGSLRLSCAASGFTFRNYAMGWYRQAPGKERELVAAISKSGGSTYYADSVKGRFTISRDNAKNTVYFQMNSLKPEDSAVYYCATVYLYVYGFEYYYWGQGTQVTLSS | high polyreactivity |
